Experimental findings from article PMC8808070 (The Journal of Biological Chemistry, 2021) are described below.

The target in data set [1] is T1, YjgCD (ForCE1) (Bacillus subtilis, UniProt O34720).
T1 construct: gene forC; full-length YjgC with N-terminal 6His tag and TEV site, copurified with untagged YjgD; homologous expression in B. subtilis 168; heterodimer 132 kDa; YjgC ~110 kDa, YjgD 21 kDa
T1 sequence (O34720 1-985): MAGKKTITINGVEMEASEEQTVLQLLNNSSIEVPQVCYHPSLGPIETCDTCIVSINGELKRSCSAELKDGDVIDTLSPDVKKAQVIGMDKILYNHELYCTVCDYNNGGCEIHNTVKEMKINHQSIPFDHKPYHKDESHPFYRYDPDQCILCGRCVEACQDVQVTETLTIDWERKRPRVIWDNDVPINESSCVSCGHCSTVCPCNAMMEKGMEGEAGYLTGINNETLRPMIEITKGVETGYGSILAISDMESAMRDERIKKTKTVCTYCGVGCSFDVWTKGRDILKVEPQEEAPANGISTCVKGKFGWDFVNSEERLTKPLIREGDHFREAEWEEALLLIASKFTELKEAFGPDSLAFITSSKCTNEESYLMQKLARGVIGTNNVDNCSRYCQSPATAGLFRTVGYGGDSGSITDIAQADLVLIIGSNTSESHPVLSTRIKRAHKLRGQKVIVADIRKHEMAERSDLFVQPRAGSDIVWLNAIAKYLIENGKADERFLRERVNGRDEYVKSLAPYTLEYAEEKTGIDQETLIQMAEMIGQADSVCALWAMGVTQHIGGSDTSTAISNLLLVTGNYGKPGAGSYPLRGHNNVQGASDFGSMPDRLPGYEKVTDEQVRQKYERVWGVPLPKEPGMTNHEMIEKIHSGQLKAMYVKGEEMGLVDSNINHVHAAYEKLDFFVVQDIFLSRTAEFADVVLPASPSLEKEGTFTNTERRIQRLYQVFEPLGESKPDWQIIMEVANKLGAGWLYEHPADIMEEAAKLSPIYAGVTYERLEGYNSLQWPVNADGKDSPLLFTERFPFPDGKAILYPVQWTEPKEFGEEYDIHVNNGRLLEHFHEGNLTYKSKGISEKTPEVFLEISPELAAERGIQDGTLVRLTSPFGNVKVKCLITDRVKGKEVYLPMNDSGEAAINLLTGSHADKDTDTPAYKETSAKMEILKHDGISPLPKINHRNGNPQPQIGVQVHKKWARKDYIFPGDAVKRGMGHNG
T1 sequence (O34681 1-186 partner): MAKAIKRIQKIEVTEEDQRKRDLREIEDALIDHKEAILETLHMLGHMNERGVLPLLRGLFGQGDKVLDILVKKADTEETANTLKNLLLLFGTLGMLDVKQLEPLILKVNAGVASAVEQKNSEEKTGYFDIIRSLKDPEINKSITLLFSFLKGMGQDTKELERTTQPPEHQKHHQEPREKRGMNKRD
As to the kind of experiment: copurification, HPLC-ECD-MS of lipid extracts. The data set is classed as binding. As to conditions: copurified without detergent, minor species.

In data set [2] the target is T1, YjgCD (ForCE1). Nature of the data set: copurification, HPLC-ECD-MS of lipid extracts; EPR of bound menasemiquinone radical. The data set is classed as binding. As to conditions: copurified without detergent; neutral menasemiquinone form seen by EPR at pH 6.0 and 7.5.
Data set [3] concerns the target T2, YrhED (ForCE2) (Bacillus subtilis, UniProt Q795Y4).
T2 construct: gene fdhE; full-length YrhE with N-terminal 6His tag and TEV site, copurified with untagged YrhD; homologous expression in B. subtilis 168; heterodimer 125 kDa; YrhE ~110 kDa, YrhD 17 kDa
T2 sequence (Q795Y4 1-980): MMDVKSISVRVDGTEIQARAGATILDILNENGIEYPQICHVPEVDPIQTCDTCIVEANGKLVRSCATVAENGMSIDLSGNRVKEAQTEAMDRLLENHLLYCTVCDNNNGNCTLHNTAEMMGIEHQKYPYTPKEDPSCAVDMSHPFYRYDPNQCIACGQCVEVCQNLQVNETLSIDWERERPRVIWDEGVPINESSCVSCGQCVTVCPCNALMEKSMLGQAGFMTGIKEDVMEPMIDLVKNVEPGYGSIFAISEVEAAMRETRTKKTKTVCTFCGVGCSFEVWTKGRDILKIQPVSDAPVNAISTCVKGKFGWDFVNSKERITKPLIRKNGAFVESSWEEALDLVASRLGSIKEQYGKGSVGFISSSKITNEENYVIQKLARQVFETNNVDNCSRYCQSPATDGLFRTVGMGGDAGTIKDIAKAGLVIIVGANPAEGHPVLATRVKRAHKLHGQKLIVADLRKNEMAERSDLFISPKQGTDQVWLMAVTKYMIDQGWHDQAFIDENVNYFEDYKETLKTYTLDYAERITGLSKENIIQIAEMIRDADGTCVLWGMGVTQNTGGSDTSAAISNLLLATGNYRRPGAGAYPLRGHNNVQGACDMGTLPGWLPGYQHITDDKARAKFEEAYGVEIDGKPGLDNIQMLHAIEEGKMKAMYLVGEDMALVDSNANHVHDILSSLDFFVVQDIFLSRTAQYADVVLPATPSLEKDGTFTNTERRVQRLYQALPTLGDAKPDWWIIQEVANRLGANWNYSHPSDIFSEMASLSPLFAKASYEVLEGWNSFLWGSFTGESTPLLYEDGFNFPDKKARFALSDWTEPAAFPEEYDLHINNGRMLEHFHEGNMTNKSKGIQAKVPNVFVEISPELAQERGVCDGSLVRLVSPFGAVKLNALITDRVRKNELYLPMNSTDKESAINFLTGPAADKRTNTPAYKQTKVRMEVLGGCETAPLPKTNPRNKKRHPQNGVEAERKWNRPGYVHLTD
T2 sequence (O05396 1-160 partner): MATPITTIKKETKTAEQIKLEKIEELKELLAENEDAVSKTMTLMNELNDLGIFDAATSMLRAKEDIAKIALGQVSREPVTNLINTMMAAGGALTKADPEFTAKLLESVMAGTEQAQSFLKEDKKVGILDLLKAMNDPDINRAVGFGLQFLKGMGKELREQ
Described as above. The data set is classed as binding. As to conditions: copurified without detergent; menasemiquinone radical seen by EPR.

Substrate in data set [4]: CC1=CC(=O)c2ccccc2C1=O
As to the kind of experiment: purified protein. The data set is classed as biochemical, Bacillus subtilis. As to conditions: 50 mM sodium formate as electron donor, 25 mM CHES pH 9, room temperature, anaerobic.

Substrate in data set [5]: O=CO
As to the kind of experiment: purified protein. As to conditions: anaerobic.

Setting [6] is: benzyl viologen as electron acceptor (17.5 mM), 25 mM CHES pH 10, room temperature, pH 10.0.
[7] abbreviates: benzyl viologen as electron acceptor (1.75 mM), 25 mM CHES pH 8.6, room temperature, pH 8.6.

`CC(C)=CCC/C(C)=C/CC/C(C)=C/CC/C(C)=C/CC/C(C)=C/CC/C(C)=C/CC/C(C)=C/CC/C(C)=C/CC1=C(C)C(=O)c2ccccc2C1=O` [MK-8]: the “copurification, HPLC-ECD-MS of lipid extracts” value in data set [1] is on record as “ForCE1 is also able to bind MK-8 at a low but significant ratio”.

Regarding `CC(C)=CCC/C(C)=C/CC/C(C)=C/CC/C(C)=C/CC/C(C)=C/CC/C(C)=C/CC/C(C)=C/CC1=C(C)C(=O)c2ccccc2C1=O` [MK-7], the ForCE1-MK-7 ratio in data set [2] was 1:0.87. The ForCE2-MK-7 ratio in data set [3] is on record as 1:1.63.

B1: YjgCD (ForCE1) (Bacillus subtilis subsp. subtilis str. 168) (protein)
chain: T1 sequence (O34720 1-985)
notes: full-length YjgC with N-terminal 6His tag and TEV site, copurified with untagged YjgD; homologous expression in B. subtilis 168; heterodimer 132 kDa; YjgC ~110 kDa, YjgD 21 kDa
Turning to B1, in data set [4], the Km is on record as 0.025 ± 0.003 mM, the Vmax worked out at 7.5 µmol/min and the turnover number (kcat) was found to be 16.5 ± 0.6 s⁻¹. Further, in data set [5] (setting [6]), the Km came to 5.1 ± 0.9 mM, the Vmax was determined as 43.7 µmol/min and the kcat worked out at 96.1 s⁻¹.

B2: YrhED (ForCE2) (Bacillus subtilis subsp. subtilis str. 168) (protein)
chain: T2 sequence (Q795Y4 1-980)
notes: full-length YrhE with N-terminal 6His tag and TEV site, copurified with untagged YrhD; homologous expression in B. subtilis 168; heterodimer 125 kDa; YrhE ~110 kDa, YrhD 17 kDa
In the case of B2, in data set [4], the Michaelis-Menten constant (Km) is reported as 0.023 ± 0.005 mM, the Vmax turned out to be 12.6 µmol/min and the kcat is 26.4 ± 1.8 s⁻¹. Besides, in data set [5] (setting [7]), the Km is on record as 1.1 ± 0.1 mM, the maximum rate (Vmax) is 26.6 µmol/min and the turnover number (kcat) was 55.8 s⁻¹.
